The target of the series is Tn5 transposase (UniProt Q46731 Q46731:1-476). Kind of series: free adaptor added to Tn5 in fixed cells; integration with 5 mM MgCl2, 37 C; binding not measured separately. The conditions noted are these: chain copies: 2; partial duplex with 5' overhang. Here is the method:
Subsequently, TN5 transposase was added to the sample at a concentration of 85 μg/mL, and incubated at room temperature for 10 minutes. Thereby, transposase was bound to the transposase-binding sequence in the DNA fragment labeled to the nucleic acid-labeled secondary antibody.
Subsequently, a free DNA fragment (hereinafter, referred to as “oligo3-4”) having a transposase-binding sequence was added to the sample, reacted at room temperature for 1 hour, and then washed with PBS. The oligo3-4 was obtained by annealing a DNA fragment having a base sequence described in the Seq ID No. 3 and a DNA fragment having a base sequence described in the Seq ID No. 4. A double stranded DNA domain of the oligo3-4 was a binding sequence of TN5 transposase.

Sequence of Tn5 transposase (Q46731 whole entry, the tested form may be a part, one chain of several): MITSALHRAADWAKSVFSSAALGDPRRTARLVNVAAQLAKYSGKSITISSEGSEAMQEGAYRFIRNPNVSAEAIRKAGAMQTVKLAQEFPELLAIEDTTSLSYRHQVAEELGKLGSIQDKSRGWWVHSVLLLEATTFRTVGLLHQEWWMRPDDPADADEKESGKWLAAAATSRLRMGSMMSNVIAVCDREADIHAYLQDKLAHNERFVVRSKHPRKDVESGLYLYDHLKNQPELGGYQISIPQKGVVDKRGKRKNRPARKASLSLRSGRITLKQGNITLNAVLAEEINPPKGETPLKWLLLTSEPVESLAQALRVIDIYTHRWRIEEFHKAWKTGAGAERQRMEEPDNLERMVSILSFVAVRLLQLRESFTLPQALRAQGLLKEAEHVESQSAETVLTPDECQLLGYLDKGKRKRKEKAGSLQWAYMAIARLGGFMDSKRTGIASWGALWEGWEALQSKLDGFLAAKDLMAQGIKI

B1: oligo3-4 free Tn5 adaptor (mixed)
DNA 1: GTCTCGTGGGCTCGGAGATGTGTATAAGAGACAG
DNA 2: CTGTCTCTTATACACATCT
B1: the binding result is on record as “binds”.
